# Data taken from the DeepSol protein solubility set.
# Test: soluble on expression in E. coli; label from the status in PepcDB or PDB records
row,Sequence,soluble on expression in E. coli
1,MKYGIVIFPPKRIQDFANSYRKRYDSHYALIPPHITLKYPFEADEEQIKKMAKELRRIAAETPPIPIKVTKFSSFYPTSNIIYLKVEPNDVLERLHEQLHSGLFAGKPEFVFVPHITIGRDLPGAEYADVYSQLKLQDVHFEETVDRFHLLYQLENGSWTVYETFIVGGKETV,soluble
2,MSFDSLGLSPDILRAVAEQGYREPTPIQQQAIPAVLEGRDLMASAQTGTGKTAGFTLPLLQHLITRQPHAKGRRPVRALILTPTRELAAQIGENVRDYSKYLNIRSLVVFGGVSINPQMMKLRGGVDVLVATPGRLLDLEHQNAVKLDQVEILVLDEADRMLDMGFIHDIRRVLTKLPAKRQNLLFSATFSDDIKALAEKLLHNPLEIEVARRNTASDQVTQHVHFVDKKRKRELLSHMIGKGNWQQVLVFTRTKHGANHLAEQLNKDGIRSAAIHGNKSQGARTRALADFKSGDIRVLVATDIAARGLDIEELPHVVNYELPNVPEDYVHRIGRTGRAAATGEALSLVCVDEHKLLRDIEKLLKKEIPRIAIPGYEPDPSIKAEPIQNGRQQRGGGGRGQGGGRGQQQPRRGEGGAKSASAKPAEKPSRRLGDAKPAGEQQRRRRPRKPAAAQ,soluble
3,AWFDWPVHRVYVNIGKTRRFHQHYYRRDVGSHVWQHNPVHRRGVAYRDRKTSDFYGKRPPRMAPVRPETRGYPGKFPGRPESRQQQPARERRDVPGAPQTGKGPGQVPRRDSTVAPQAQPPQREQVQKPARRDTPFQGVGEGSFERRAIKRGESSIRSVTPAPQGGGRGGWSGQRAPSGGGRGGGEMRMPGGGGGGGRGGGKKEFR,not soluble
4,MKIIKRSGSEVTFDISKIMAAVSKANMEVVHSERLSEEQIETISNNVESICKEMNRSLSVEEIQDLVENQIMNLRAFAVARKYITYRYKRALVRKSNST,not soluble
5,MTGNKIHNPLDRNHSELRDKKVSLNDGDPFTIALFGVDSDADRKKKGGGERSDSIMILSINPKTKKTEIVSIPRDTRAEIVGRGTTEKIAHAYAYGGPNMAVKSLEKLMNVPIDHYATIDMDGLHNMIDSIGGVDVVSNDTFTVDGVRFTKGQQTHVNGDQALKFIRSRKEEGAGGDFGRQQRQQIVLEAMANKIASPSSITHFNSLMNEIQNNVKTDLTLGDLNTIRSNYKDANDTINKHQLSGQGGIQSDGLYYFIPSEQSKAESTKLLKDNLELEHHHHHH,soluble
6,MRQRFLPLLALLSLLLPLPAPAAPTVSTVADQTGIALTIYNRNLGLVKDRREIRLAPGNGELRFMDVAAQIIPTSVSIASLAGGELQVLEQNYEYDLLSPQKLMDKYVGKEVKLHQKNPYTEREEVVTATLLSNNGGPVYRIGDEITFGHPGRLIFPGVPDDLIARPTLVWLLEGAAVEKRTIEASYLTGGISWRADYVVTLSEKDDQANLAGWVTIDNRSGAAYRNATLKLVAGDVNRVQEQSTRFAKSVRAEAMAPAPQFQEEAFFEYHLYTLQRPSTIKENQTKQINLVTADAVPVKKEFLLKGESFYYQSPAGEVEKQKVGVFVEMENRKEHNLGMPLPKGIVRVYKRDAGGSLQFVGEDTIDHTPEKETVRVKLGDAFDVVGERKQTEWRKVASDTYESAFEIRLRNHKKEDITVKVVEPVPGDWQMLSSSHPHEKGDAFSAVFKVPVPKDGEATLVYRVRMRYLEHHHHHH,soluble
7,MGSDKIHHHHHHMKSYRKELWFHTKRRREFINITPLLEECVRESGIKEGLLLCNAMHITASVFINDDEPGLHHDFEVWLEKLAPEKPYSQYKHNDTGEDNADAHLKRTIMGREVVIAITDRKMDLGPWEQVFYGEFDGMRPKRVLVKIIGE,soluble
8,MSLSELVRKLSGTAPNPAFPRGAVDTQMHMYLPGYPALPGGPGLPPGALPGPEDYRRLMQWLGIDRVIITQGNAHQRDNGNTLACVAEMGEAAHAVVIIDATTTEKDMEKLTAAGTVGARIMDLPGGAVNLSELDAVDERAHAADWMVAVQFDGNGLLDHLPRLQKIRSRWVFDHHGKFFKGIRTDGPEMAALLKLIDRGNLWFKFAGVYESSRKSWPYADVAAFSRVIAAHAPERIVWGTNWPHNSVRETAAYPDDARLAELTLGWLPDEAARHRALVENPEALFKLSPVKEGHHHHHH,soluble
9,MSQNATVNVDIKLGVNKFHVDEGHPHIILTENPDINEFRKLMKACPAGLYKQDDVGNIHFDPAGCLECGTCRVLCGNTILEQWQYPAGTFGIDFRYG,not soluble
10,MVTDHGYKCRITNIVPLSEHEKLFQLRIVDPRERELFTFRPGQFLMLEVPGYGEAPISISSATSNREFIELCIRKAGHVTSALFEAKQGAFVAVRGPFGTSFPMEAMQDHDVLLIAGGLGIAPLRAPLFWINDHRDHYRNVSFLYGAKEPSQMLFTYQFEEWKTVSHIDLHTIVEKPDDQWTGRTGMITLLFDEITIDPKNTWAIVCGPPVMFKFVCTHLDKLGIPMNRMFVSLERHMNCGMGKCCRCMVGSTFTCLDGPVFDYWSVMNLKEAI,not soluble
11,MGSDKIHHHHHHMTTSAVSIPMPSIPRRRRSPEDVLAAAPVPGPKKVLLAAPRGYCAGVDRAVIAVEKALEHYGPPVYVRKQIVHNVHVVSSLEEKGAIFVDETDEVPEGALVIFSAHGVSPAVVQSAEDRGLRTIDATCPLVTKVHREAVRFAKDDFDILLIGHDGHEEVEGTAGEAPEHIQIINGPHEVDKVTVRDPEKVIWLSQTTLSVDETMETVRLLKERFPTLQDPPSDDICYATTNRQVAIKKISPQADLVIVVGSANSSNSVRLVEVALEYGAKASYRVDFANEVDEAWFEGVATVGVTSGASVPEVLVKDVLRLLADYGYGTVEEVVTAEEDLLFSLPKELRATLKKSGDVTRALGGRGARA,not soluble
12,MSVEEEKGLLARADEFLQAFKKGAEFTQELLRENERLRFRTLQLEADQKGEGVAAALAVENRKLAARVEELEREIAEIIGQIRQIEAENNDFAARYVEIEEENNNLANLYIASYQLHSTLDFSEVLQIITEIIINLIGAEEFAVMLVDEKTGSLDAVAAEGISLEELPRVRLGEGVIGIAAGTGENYFAEGPETYERDLLRPMVCIPLKIKEHVIGVIAIYKLLIQKKSFASVDYELFTLLAGHAATAIFSSRIYSDSERKLSTMQGFINLLTT,not soluble
13,KHLFDEIDTIDVMDVNAGDHGKKFATNFDPETNMLEIQGDSFYWENGEWKQVPCHSRMLEFEFPNCGSHKVYSMAHDEVRSMKEFIPAKRIEFWMGFGDRYLNYFNVMRDIGLLSPDPLTLHDGTVVQPLHVLKALLPDP,not soluble
14,MGSDKIHHHHHHMSSFAEFSRLALTLEPWRQHIVFVGGWAFRLYGYEPRAYTADHKPIFTQDADVAYDKRELIEGDIKTALEGAGFTEQPNLAGGFRPPAMRYNLDGDENGFYAEFLTPLTGSGKKRDGKGGLKEDATERYAGIVAQKLRFLEVLLFKPWLVTIPKEESGLDEAVADLRVPNPVSFMIQKLLIRDRREGKKRAQDVLYIHGTLQIFYGVVENDLVPIWKELEATLHANQRKSVREGVQELFSEMNDVIREAAEIPDDKLDPEAMLQLCREGFEELFGDI,not soluble
15,MGSDKIHHHHHHMKKLSHQFDKPKRSVASPEALEALRNNNAVRWYVLSLPDCHRGGVRGLQREQDRRIQAGEPSFGFFAPSYQEVRRIDGKFVNTQRPLLFNYVFVRASERDVFQLMQRFPVLSFLPRVRERKREYFPYLSDAAMENLQWVARSYSNTLPVYIPQPDGLRKGDRIRITEGRFKGVEATVVIQPGAGRKDVMVCVENWMWVPLLRVMPGEYEVIALNDEDKHVYTRLDNDCMLNGLHSALQRYHSAEGVNEEDRSLAARALKEYGNLRMDTDVMRCKLYAILLPAYTILGMEEEAAKLVGVMQTMLPLVKAEQSRALAVVTLYGCTDSSIYYHLAHEAVDPWKKEEKPKKSKQQLINRLADYDRWLRH,not soluble
16,MAVQYKSTTTEHKFKHLSVYERGQIAALLKEGKSQRYIANKLGRSPSTISREIKRGTTMQMRTDLSTYKVYFPETGQAVYEKNRMNCGAKRKLAQVEDFLKFAEDKILREKWSPDAVVGLCRRDPKWQNSTIVCTKTLYNYIDLGLIKVRNIDLNLKLRLKS,soluble
17,MKDDKTILILTAQFGAGHISAAKAVKECIIEKYSNYNVVIQNFINASIPMMNKPMVKLYENNTKYTPGLYNYYYYFKKSFDSRHDLSHKLYTPKLSEYIADINPDLIISTFPLAAACVNNFKIKNPDINIPTLTVITDVVDSMEWVFENTDLYFVPSPEIKNRFFQKGINPDSIKVTGVPLEHHHHHH,not soluble
18,MIVERVLYNIKDIDLEKLEVDFVDIEWYEVQKKILRKLSSNGIEVGIRNSNGEALKEGDVLWQEGNKVLVVRIPYCDCIVLKPQNMYEMGKTCYEMGNRHAPLFIDGDELMTPYDEPLMQALIKCGLSPYKKSCKLTTPLGGNLHGYSHSHSH,not soluble
19,MSDSQEQLISSENTEVDKQAEEDRKLRRLNRRKALALERSPLPVPKLGRVLLSANSTIDLTNEDDDPSNKWFKKTFNAEKIPKLAKSPEEAKLFAVPRKISKNAPKSLLTSETLKKKLQASMSAKRRKEQEQRRKMYEEDNEHLKAGSDEEEEEDVVFKKKKGKKPVNEEEYKSEDDEDYEPENSGEEDSDEKNNGRADDEMSVNLLNDSFTYDVFNNVKRSGPGSTVSNFDSRSEADVVEKNGVVQLPTMTEITGGSNDILNLCPGSFGVSQSAGFPDTLQMLIEEDTTERKINLPQNSTSVSSDKPRLEESESEDEDDVGVKRRLPAVKNHRVLDSDEEDDVIEETLPSQDVFGSGTLEDSETIKEICEKSGEFTEKIETVLEEKTELKRVVLSDGEDSDEEAEEAEEEGDDEEEPEEDDIESENDEAETEGVEAPDPNFDDEDDELAILKRLQHQEYKQKIKKRTLFDDEASLSGDDVGSDLEDEEGMENVYEAEEGDADDVPDNDTIRRQNHKLLLKQENDKEQRELAKLQDRLLADGDLGGVETNRQFRFKLREEVQIQMGDDVDGNDGDGEDDEPEEDEQKKKERAEMIKFKYEHAEELMLLDEPKQGDDMFARAGKLFKKTEKTVIEFSEETMFKPRLSKPSLLSKTTLAVTFQEVLNGPGGAAKQMYVQSFEKPTPLSTGHISSPSSRLSTGKRLLKSPESSASAKRVRSSKLSSLE,not soluble
20,GPGSMTYCPITRKELERYLPNFDPLLDPQIGEWVLVTPERRFAILGPLLQFVQEHAIKPIYPFLDNSEPSSAPVTTFNFCKEDSPKTLGDPSKVFPTLSEVWRRYRRRRFHISGMDEDGIGEEEENDDTILYLNPRALLLTPCAPAVFGGSDFIEGLDREGERVVFVNWKTGETRTDSGVLKPAPIPAWAEDVAEKAAMEWESWKKCVIPPSSTRE,soluble
21,MSLKNEKQDITLWIAPNNVQEAFWSEVVGEWNKQPDKKKVVFSTIPAAGSSEEAIMNAIASDRAPDISENIFTGFGSQLADLGQVVDLSTLDGYENLISTRQMTDIMDNWRYNGKNYILPIYMNPVLFWWRGDLLKEQGFSEVPKTYDEVYALSEKYTIPDKRYAIQATSGRNWWDRWFDFIALYYAQSDGKPYIANQQASYDNQAGRDVLDFMHTLFSKKWTLYDFGQDDPLVTGKVLGAVRGPWDISRYQQQYPEILKHIKMGPMLVKEQQDKPHTFADGKGLVLFSHSKVKPEAWEFIQWVFSQPKFDKRWMELTGMPPARADLLTNPFFAEYYQEHPYAAAYAEYVNVAIPPVSSGETVEIQRSMTQMIEKTAFNTSTPDEALQQSIKEVNAILKEGHHHHHH,soluble
22,MGSDKIHHHHHHMAEVHVIGQIIGATGFSESSLFCKWGIHTGAAWKLLSGVREGQTQVDTPQIGDMAYWSHPIDLHFATKGLQGWPRLHLQVWSQDSFGRCQLAGYGFCHVPSSPGTHQLDCPTWRPLGSWREQLARAFVGGGPQLLHADTIYSGADRYRLHTAAGGTVHLGIGLLLRHFDRYGVEC,not soluble
